Assay results published in paper PMC314469, “Protein Interaction Networks by Proteome Peptide Scanning” (PLoS Biology, 2004).

Biological target: T1, Boi2 SH3 (BOI2_YEAST), P39969
T1 chain: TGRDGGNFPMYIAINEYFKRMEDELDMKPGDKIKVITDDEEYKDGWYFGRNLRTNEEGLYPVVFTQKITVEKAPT
Assay: SPOT array

Point of comparison: ITSIRGSPSLPKNK [YKL071W 35-48], normalised SPOT signal, Boehringer light units (BLU); mean over the file's lines of this peptide 31.5. Against it:
- ITRARYMPQDPNIV [YEL056W 121-134] — higher, 70.9
- KAALKYHPDKPTGD [YNL007C 28-41] — lower, 18.7
- KALPKRRPSPPLQS [YKR019C 209-222] — lower, 30.5
- IYHSKKQPLVPIGS [YML030W 25-38] — lower, 21
- ITDTKLFPGNPNLM [YFR029W 524-537] — lower, 2.3
- IVNEKRTPALPSNL [YOR191W 260-273] — lower, 20.9

Biological target: T2, Yfr024 SH3 (LSB3_YEAST), P43603
T2 chain: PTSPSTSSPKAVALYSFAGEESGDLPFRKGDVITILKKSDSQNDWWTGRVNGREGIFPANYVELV
Assay: SPOT array

Point of comparison: ITDTKLFPGNPNLM [YFR029W 524-537], normalised SPOT signal, Boehringer light units (BLU); mean over the file's lines of this peptide 28.7. Against it:
- ITRARYMPQDPNIV [YEL056W 121-134] — higher, 486
- KAALKYHPDKPTGD [YNL007C 28-41] — higher, 32.9
- KALPKRRPSPPLQS [YKR019C 209-222] — higher, 13400
- ITSIRGSPSLPKNK [YKL071W 35-48] — higher, 1400
- IYHSKKQPLVPIGS [YML030W 25-38] — higher, 189
- IVNEKRTPALPSNL [YOR191W 260-273] — higher, 74.4

Biological target: T3, Yhr016c SH3 (YSC84_YEAST), P32793
T3 chain: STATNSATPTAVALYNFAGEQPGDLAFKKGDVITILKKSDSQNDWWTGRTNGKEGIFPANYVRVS
Assay: SPOT array

Point of comparison: ITRARYMPQDPNIV [YEL056W 121-134], normalised SPOT signal, Boehringer light units (BLU); mean over the file's lines of this peptide 84.6. Against it:
- KAALKYHPDKPTGD [YNL007C 28-41] — lower, 18.6
- KALPKRRPSPPLQS [YKR019C 209-222] — higher, 2190
- ITSIRGSPSLPKNK [YKL071W 35-48] — lower, 44.2
- IYHSKKQPLVPIGS [YML030W 25-38] — higher, 86.8
- ITDTKLFPGNPNLM [YFR029W 524-537] — lower, 15.4
- IVNEKRTPALPSNL [YOR191W 260-273] — lower, 11.6

Biological target: T4, Boi1 SH3 (BOI1_YEAST), P38041
T4 chain: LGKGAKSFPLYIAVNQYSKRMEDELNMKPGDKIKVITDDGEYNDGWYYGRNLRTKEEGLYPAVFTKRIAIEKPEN
Assay: SPOT array

Point of comparison: KALPKRRPSPPLQS [YKR019C 209-222], normalised SPOT signal, Boehringer light units (BLU); mean over the file's lines of this peptide 1770. Against it:
- ITRARYMPQDPNIV [YEL056W 121-134] — higher, 2220
- KAALKYHPDKPTGD [YNL007C 28-41] — lower, 21.4
- ITSIRGSPSLPKNK [YKL071W 35-48] — lower, 420
- IYHSKKQPLVPIGS [YML030W 25-38] — lower, 182
- ITDTKLFPGNPNLM [YFR029W 524-537] — lower, 113
- IVNEKRTPALPSNL [YOR191W 260-273] — lower, 73.8

Biological target: T5, Rvs167 SH3 (RV167_YEAST), P39743
T5 chain: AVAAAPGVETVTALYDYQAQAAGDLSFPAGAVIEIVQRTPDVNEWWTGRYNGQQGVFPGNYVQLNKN
Assay: SPOT array

Point of comparison: KALPKRRPSPPLQS [YKR019C 209-222], normalised SPOT signal, Boehringer light units (BLU); mean over the file's lines of this peptide 906. Against it:
- ITRARYMPQDPNIV [YEL056W 121-134] — lower, 111
- KAALKYHPDKPTGD [YNL007C 28-41] — lower, 84.8
- ITSIRGSPSLPKNK [YKL071W 35-48] — lower, 104
- IYHSKKQPLVPIGS [YML030W 25-38] — lower, 160
- ITDTKLFPGNPNLM [YFR029W 524-537] — lower, 67.4
- IVNEKRTPALPSNL [YOR191W 260-273] — lower, 51.5

Biological target: T6, Myo5 SH3 (MYO5_YEAST), Q04439
T6 chain: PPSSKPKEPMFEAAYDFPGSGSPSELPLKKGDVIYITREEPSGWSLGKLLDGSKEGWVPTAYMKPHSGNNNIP
Assay: SPOT array

Point of comparison: IYHSKKQPLVPIGS [YML030W 25-38], normalised SPOT signal, Boehringer light units (BLU); mean over the file's lines of this peptide 294. Against it:
- ITRARYMPQDPNIV [YEL056W 121-134] — lower, 190
- KAALKYHPDKPTGD [YNL007C 28-41] — lower, 156
- KALPKRRPSPPLQS [YKR019C 209-222] — higher, 1140
- ITSIRGSPSLPKNK [YKL071W 35-48] — higher, 370
- ITDTKLFPGNPNLM [YFR029W 524-537] — lower, 94.6
- IVNEKRTPALPSNL [YOR191W 260-273] — lower, 102

What follows are binders tested against Sho1 SH3 (SHO1_YEAST), P40073 (assay: SPOT array).
Sequence of Sho1 SH3 (SHO1_YEAST), P40073 (P40073 295-366): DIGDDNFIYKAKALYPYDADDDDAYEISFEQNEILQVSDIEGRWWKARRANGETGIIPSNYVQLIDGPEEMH

Point of comparison: IYHSKKQPLVPIGS [YML030W 25-38], normalised SPOT signal, Boehringer light units (BLU); mean over the file's lines of this peptide 144. Against it:
- ITRARYMPQDPNIV [YEL056W 121-134] — higher, 153
- KAALKYHPDKPTGD [YNL007C 28-41] — lower, 60.7
- KALPKRRPSPPLQS [YKR019C 209-222] — higher, 758
- ITSIRGSPSLPKNK [YKL071W 35-48] — lower, 111
- ITDTKLFPGNPNLM [YFR029W 524-537] — lower, 43.8
- IVNEKRTPALPSNL [YOR191W 260-273] — lower, 86.8
